Experimental data published in the supplement of paper PMC10567573.

B1: ESRRG (parent)
chain: YSCPATNECEITKRRRKSCQACRF
B2: RIPK4 (parent)
chain: AAWQGHLPIVKLLAKQPGVSVNAQ

Variants of: B1
Assay: protein stability index of a GFP-peptide fusion (GPS, HEK-293T) (PSI 1-6); higher = more stable
Settings: c terminus: a fixed tail appended
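Also: lentivirally expressed fusions sorted by FACS into six bins by GFP to DsRed ratio, PSI derived from sequencing read proportions per bin multiplied by bin number.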

| Variant | protein stability index |
| --- | --- |
| C9R | 3.38 |
| C9N | 3.18 |
| C9T | 3.61 |
| C9G | 3.82 |
| C9F | 3.32 |
| C9D | 3.4 |
| C9P | 3.5 |
| C9Q | 3.47 |
| C9L | 3.08 |
| C9H | 3.68 |
| C9A | 3.39 |
| C9M | 3.59 |
| C9Y | 2.69 |
| C9E | 3.79 |
| C9I | 3.48 |
| C9K | 3.91 |
| P4M | 2.76 |
| P4D | 3.48 |
| P4Y | 2.59 |
| P4Q | 3.11 |
| P4V | 3.09 |
| P4G | 2.93 |
| P4T | 3.21 |
| P4I | 2.53 |
| P4F | 2.39 |

| Variant | protein stability index |
| --- | --- |
| P4C | 2.92 |
| P4E | 3.2 |
| P4R | 3.09 |
| P4N | 3.24 |
| P4L | 2.64 |
| P4W | 1.47 |
| P4H | 2.91 |
| P4S | 3.11 |
| P4A | 3.03 |
| P4K | 3.18 |
| N7Q | 3.36 |
| N7M | 2.96 |
| N7H | 3.88 |
| N7F | 2.52 |
| N7K | 3.57 |
| N7R | 3.56 |
| N7P | 3.55 |
| N7Y | 2.06 |
| N7T | 3.61 |
| N7G | 3.29 |
| N7A | 2.64 |
| N7W | 2.35 |
| N7E | 3.19 |
| N7C | 2.42 |
| N7S | 3.01 |

| Variant | protein stability index |
| --- | --- |
| N7D | 3.31 |
| N7I | 2.83 |
| N7L | 2.74 |
| N7V | 3.14 |
| A5N | 3.27 |
| A5T | 2.78 |
| A5K | 3.36 |
| A5F | 2.79 |
| A5L | 3.2 |
| A5R | 2.89 |
| A5E | 3.73 |
| A5W | 1.51 |
| A5D | 3.38 |
| A5V | 3.03 |
| A5C | 3.43 |
| A5P | 3.12 |
| A5I | 3.01 |
| A5Q | 3.26 |
| A5S | 3.33 |
| A5G | 3.58 |
| A5M | 3 |
| A5Y | 3.05 |
| A5H | 3.73 |

Variants of: B2
Assay: as above
Settings: c terminus: a fixed tail appended

| Variant | protein stability index |
| --- | --- |
| S20A | 2.3 |
| S20F | 1.64 |
| S20T | 2.4 |
| S20C | 2.88 |
| S20I | 2.33 |
| S20G | 2.63 |
| S20W | 2.83 |
| S20H | 1.97 |
| S20E | 2.79 |
| S20M | 2.29 |
| S20P | 2.05 |
| S20D | 2.55 |
| S20Y | 1.66 |
| S20R | 2.97 |
| S20Q | 2.35 |
| S20L | 1.76 |
| S20V | 1.82 |
| S20K | 1.96 |
| V21G | 1.6 |
| V21S | 2.81 |
| V21I | 2.43 |
| V21T | 2.18 |
| V21K | 2.8 |
| V21L | 2.51 |

| Variant | protein stability index |
| --- | --- |
| V21P | 2.3 |
| V21N | 2.99 |
| V21D | 3.05 |
| V21M | 1.95 |
| V21H | 2.45 |
| V21R | 2.75 |
| V21C | 1.54 |
| V21E | 2.92 |
| V21A | 2.62 |
| V21F | 2.23 |
| V21Y | 1.89 |
| V21Q | 2.3 |
| N22W | 1.36 |
| N22F | 1.55 |
| N22P | 2.19 |
| N22V | 3.92 |
| N22D | 2.48 |
| N22S | 3.35 |
| N22H | 2.37 |
| N22T | 2.58 |
| N22I | 2.22 |
| N22Q | 1.98 |
| N22A | 2.15 |
| N22Y | 1.39 |

| Variant | protein stability index |
| --- | --- |
| N22G | 1.98 |
| N22R | 1.98 |
| N22K | 2.29 |
| N22L | 2.06 |
| N22C | 1.89 |
| N22M | 2.61 |
| V19W | 1.61 |
| V19Y | 1.75 |
| V19T | 2.46 |
| A23H | 1.79 |
| A23M | 1.74 |
| A23L | 2.01 |
| A23G | 2.54 |
| A23R | 2.64 |
| A23T | 2.4 |
| A23I | 1.72 |
| A23E | 2.92 |
| A23Q | 3.54 |
| A23V | 2.19 |
| A23Y | 1.63 |
| A23P | 2.03 |
| A23K | 2.6 |
| A23N | 2.92 |
| A23D | 2.65 |

| Variant | protein stability index |
| --- | --- |
| A23F | 1.41 |
| A23C | 2.89 |
| A23S | 2.52 |
| Q24V | 3.06 |
| Q24S | 2.69 |
| Q24R | 3.16 |
| Q24W | 1.58 |
| Q24P | 1.89 |
| Q24M | 1.86 |
| Q24C | 2.19 |
| Q24F | 2.07 |
| Q24G | 1.93 |
| Q24T | 1.93 |
| Q24Y | 1.5 |
| Q24D | 3.29 |
| Q24N | 2.39 |
| Q24I | 1.61 |
| Q24L | 2.83 |
| Q24H | 1.93 |
| Q24A | 2.08 |
| Q24K | 2.78 |
| Q24E | 3.17 |
